The substances below were run against His-tagged human IL-18BP (human) (UniProt O95998) (assay: AlphaLISA of free IL-18BP).

| Kd [nM] | Substance |
| --- | --- |
| 373 | IL-18 variant SEQ ID NO: 207 (V11I, C38A, M51G, K53A, C76A, C127A) (from UniProt Q14116 37-193) (ligand) |
| 31.4 | IL-18 variant SEQ ID NO: 5 with 30 kDa PEG (E6K, V11I, C38A, K53A, T63A, C68A, C76A, C127A, M86C-30kPEG) (from UniProt Q14116 37-193) (ligand) |
| 631 | IL-18 variant SEQ ID NO: 6 (E6K, V11I, C38A, K53A, T63A, C68A, C76A, D98C, C127A) (from UniProt Q14116 37-193) (ligand) |
| 19.7 | IL-18 variant SEQ ID NO: 30 with 5 kDa PEG (E6K, V11I, C38A, K53A, T63A, C76A, C127A, C68-5kPEG) (from UniProt Q14116 37-193) (ligand) |
| 44.4 | IL-18 variant SEQ ID NO: 28 (E6K, C38A, K53A, T63A, C76A, C127A) (from UniProt Q14116 37-193) (ligand) |
| 0.64 | IL-18 variant SEQ ID NO: 210 (V11I, E31A, C38A, K53A, C76A, C127A) (from UniProt Q14116 37-193) (ligand) |
| 2.88 | IL-18 variant SEQ ID NO: 212 (V11I, D35A, C38A, K53A, C76A, C127A) (from UniProt Q14116 37-193) (ligand) |
| 0.14 | IL-18 variant SEQ ID NO: 230 (K8L, E6K, V11I, C38A, K53A, T63A, C76A, C127A) (from UniProt Q14116 37-193) (ligand) |
| 48.4 | IL-18 variant SEQ ID NO: 57 (E6K, C38S, K53A) (from UniProt Q14116 37-193) (ligand) |
| 57.2 | IL-18 variant SEQ ID NO: 209 (F2A, V11I, C38A, K53A, C76A, C127A) (from UniProt Q14116 37-193) (ligand) |
| 40.7 | IL-18 variant SEQ ID NO: 28 with 30 kDa PEG (E6K, C38A, K53A, T63A, C76A, C127A, C68-30kPEG) (from UniProt Q14116 37-193) (ligand) |
| 25.8 | IL-18 variant SEQ ID NO: 232 (E6K, V11I, C38A, I49M, K53A, T63A, C76A, C127A) (from UniProt Q14116 37-193) (ligand) |
| 181 | IL-18 variant SEQ ID NO: 5 (E6K, V11I, C38A, K53A, T63A, C68A, C76A, M86C, C127A) (from UniProt Q14116 37-193) (ligand) |
| 26.3 | IL-18 variant SEQ ID NO: 30 with 30 kDa PEG (E6K, V11I, C38A, K53A, T63A, C76A, C127A, C68-30kPEG) (from UniProt Q14116 37-193) (ligand) |
| 0.66 | IL-18 variant SEQ ID NO: 205 (V11I, C38A, K53A, T63A, C76A, C127A) (from UniProt Q14116 37-193) (ligand) |
| 1.24 | IL-18 variant SEQ ID NO: 211 (V11I, T34A, C38A, K53A, C76A, C127A) (from UniProt Q14116 37-193) (ligand) |
| 0.85 | IL-18 variant SEQ ID NO: 223 (K8E, V11I, C38A, C76A, Q103R, C127A) (from UniProt Q14116 37-193) (ligand) |
| 82.7 | IL-18 variant SEQ ID NO: 9 (E6K, C38A, K53A, C68A, D98C) (from UniProt Q14116 37-193) (ligand) |
| 69.6 | IL-18 variant SEQ ID NO: 62 (E6K, C38A, K53A, C127A) (from UniProt Q14116 37-193) (ligand) |
| 5.46 | IL-18 variant SEQ ID NO: 240 (E6R, V11I, C38A, K53A, T63A, C76A, C127A) (from UniProt Q14116 37-193) (ligand) |
| 15.7 | IL-18 variant SEQ ID NO: 30 with 10 kDa PEG (E6K, V11I, C38A, K53A, T63A, C76A, C127A, C68-10kPEG) (from UniProt Q14116 37-193) (ligand) |
| 1.12 | IL-18 variant SEQ ID NO: 213 (V11I, S36A, C38A, K53A, C76A, C127A) (from UniProt Q14116 37-193) (ligand) |
| 9.74 | IL-18 variant SEQ ID NO: 206 (V11I, C38A, K53A, S55A, C76A, C127A) (from UniProt Q14116 37-193) (ligand) |
| 18.5 | IL-18 variant SEQ ID NO: 217 (V11I, C38A, N41A, K53A, C76A, C127A) (from UniProt Q14116 37-193) (ligand) |
| 13.7 | IL-18 variant SEQ ID NO: 218 (V11I, C38A, K53A, C76A, C127A, D132A) (from UniProt Q14116 37-193) (ligand) |

| Kd [nM] | Substance |
| --- | --- |
| 1.24 | IL-18 variant SEQ ID NO: 219 (V11I, C38A, K53A, C76A, G108A, C127A) (from UniProt Q14116 37-193) (ligand) |
| 0.15 | IL-18 variant SEQ ID NO: 226 (V11I, C38A, S55R, C76A, C127A) (from UniProt Q14116 37-193) (ligand) |
| 0.71 | IL-18 variant SEQ ID NO: 221 (V11I, C38A, K53A, C76A, D110A, C127A) (from UniProt Q14116 37-193) (ligand) |
| 55.6 | IL-18 variant SEQ ID NO: 4 (E6K, C38A, K53A, C68A, M86C) (from UniProt Q14116 37-193) (ligand) |
| 20.2 | IL-18 variant SEQ ID NO: 6 with 30 kDa PEG (E6K, V11I, C38A, K53A, T63A, C68A, C76A, C127A, D98C-30kPEG) (from UniProt Q14116 37-193) (ligand) |
| 0.74 | IL-18 variant SEQ ID NO: 216 (V11I, C38A, D40A, K53A, C76A, C127A) (from UniProt Q14116 37-193) (ligand) |
| 0.02 | IL-18 variant SEQ ID NO: 227 (V11I, C38A, S55T, C76A, C127A) (from UniProt Q14116 37-193) (ligand) |
| 36.8 | IL-18 variant SEQ ID NO: 11 (E6K, V11I, C38A, K53A, C76A, C127A) (from UniProt Q14116 37-193) (ligand) |
| 2.25 | IL-18 variant SEQ ID NO: 243 (Y1M, E6K, V11I, C38A, K53A, T63A, C76A, C127A) (from UniProt Q14116 38-193) (ligand) |
| 0.06 | IL-18 variant SEQ ID NO: 222 (K8R, V11I, C38A, C76A, Q103E, C127A) (from UniProt Q14116 37-193) (ligand) |
| 48.5 | IL-18 variant SEQ ID NO: 59 with 20 kDa PEG (E6K, C38A, K53A, C68-20kPEG) (from UniProt Q14116 37-193) (ligand) |
| 0.04 | IL-18 variant SEQ ID NO: 228 (V11I, C38A, C76A, S105I, C127A) (from UniProt Q14116 37-193) (ligand) |
| 61.1 | IL-18 variant SEQ ID NO: 8 (E6K, V11I, C38A, K53A, T63A, C68A, C76A, T95C, C127A) (from UniProt Q14116 37-193) (ligand) |
| 25.8 | IL-18 variant SEQ ID NO: 208 (V11I, C38A, K53A, D54A, C76A, C127A) (from UniProt Q14116 37-193) (ligand) |
| 0.05 | IL-18 variant SEQ ID NO: 224 (V11I, C38A, C76A, Q103K, C127A) (from UniProt Q14116 37-193) (ligand) |
| 129 | IL-18 variant SEQ ID NO: 4 with 30 kDa PEG (E6K, C38A, K53A, C68A, M86C-30kPEG) (from UniProt Q14116 37-193) (ligand) |
| 50.7 | IL-18 variant SEQ ID NO: 59 with 10 kDa PEG (E6K, C38A, K53A, C68-10kPEG) (from UniProt Q14116 37-193) (ligand) |
| 4.55 | IL-18 variant SEQ ID NO: 214 (V11I, D37A, C38A, K53A, C76A, C127A) (from UniProt Q14116 37-193) (ligand) |
| 0.08 | IL-18 variant SEQ ID NO: 225 (V11I, C38A, S55H, C76A, C127A) (from UniProt Q14116 37-193) (ligand) |
| 8.86 | IL-18 variant SEQ ID NO: 204 (V11I, C38A, K53A, C76A, C127A) (from UniProt Q14116 37-193) (ligand) |
| 0.55 | IL-18 variant SEQ ID NO: 220 (V11I, C38A, K53A, C76A, H109A, C127A) (from UniProt Q14116 37-193) (ligand) |
| 0.05 | IL-18 variant SEQ ID NO: 229 (V11I, C38A, C76A, S105K, C127A) (from UniProt Q14116 37-193) (ligand) |
| 2.12 | IL-18 variant SEQ ID NO: 215 (V11I, E31A, D37A, C38A, K53A, C76A, C127A) (from UniProt Q14116 37-193) (ligand) |
| 151 | IL-18 variant SEQ ID NO: 9 with 30 kDa PEG (E6K, C38A, K53A, C68A, D98C-30kPEG) (from UniProt Q14116 37-193) (ligand) |

Each substance was assayed against Fc fused human IL-18BP isoform a (IL-18BPa) (human) (UniProt O95998) (assay: SPR, Fc-IL-18BPa captured, 1:1 fit).
Fc fused human IL-18BP isoform a (IL-18BPa) (human), sequence (O95998 31-194): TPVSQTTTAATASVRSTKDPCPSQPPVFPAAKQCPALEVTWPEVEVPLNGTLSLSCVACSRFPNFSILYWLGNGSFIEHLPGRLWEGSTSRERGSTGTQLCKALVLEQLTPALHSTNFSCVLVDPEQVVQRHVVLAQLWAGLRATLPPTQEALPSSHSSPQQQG

| Kd [nM] | koff [s⁻¹] | kon [M⁻¹ s⁻¹] | Substance |
| --- | --- | --- | --- |
| 4.75 | 0.00386 | 813000 | IL-18 variant SEQ ID NO: 30 with 5 kDa PEG (E6K, V11I, C38A, K53A, T63A, C76A, C127A, C68-5kPEG) (from UniProt Q14116 37-193) (ligand) |
| 1.8 | 0.00311 | 1.63e+06 | IL-18 variant SEQ ID NO: 57 (E6K, C38S, K53A) (from UniProt Q14116 37-193) (ligand) |
| 37.4 | 0.00382 | 102000 | IL-18 variant SEQ ID NO: 61 with 30 kDa PEG (E6K, C38A, K53A, C76A, C68-30kPEG) (from UniProt Q14116 37-193) (ligand) |
| 45.1 | 0.00451 | 106000 | IL-18 variant SEQ ID NO: 30 with 30 kDa PEG (E6K, V11I, C38A, K53A, T63A, C76A, C127A, C68-30kPEG) (from UniProt Q14116 37-193) (ligand) |
| 1.96 | 0.00315 | 1.61e+06 | IL-18 variant SEQ ID NO: 62 (E6K, C38A, K53A, C127A) (from UniProt Q14116 37-193) (ligand) |
| 6.83 | 0.0036 | 527000 | IL-18 variant SEQ ID NO: 30 with 10 kDa PEG (E6K, V11I, C38A, K53A, T63A, C76A, C127A, C68-10kPEG) (from UniProt Q14116 37-193) (ligand) |
| 2.1 | 0.0036 | 1.74e+06 | IL-18 variant SEQ ID NO: 61 (E6K, C38A, K53A, C76A) (from UniProt Q14116 37-193) (ligand) |
